For assay [1], the target named is WNV HA-NS5 (HA-tagged West Nile virus NS5) (West Nile virus) (UniProt P06935). The assay can be described thus: co-IP; anti-HA agarose beads; lysates of transfected 293 T cells (lysis buffer with protease inhibitors and benzonase), overnight at 4 °C; UBA1 detected by Western blot.
Assay [2] deals with ZIKV HA-NS5 (full-length Zika virus NS5 fused to an HA-tag in its N-terminus) (Zika virus). The description is as above.
In assay [3] the target is USUV HA-NS5 (HA-tagged Usutu virus NS5) (Usutu virus) (UniProt Q5WPU5). The description is as above.
UniProt Q5WPU5, sequence (Q5WPU5 2530-3434): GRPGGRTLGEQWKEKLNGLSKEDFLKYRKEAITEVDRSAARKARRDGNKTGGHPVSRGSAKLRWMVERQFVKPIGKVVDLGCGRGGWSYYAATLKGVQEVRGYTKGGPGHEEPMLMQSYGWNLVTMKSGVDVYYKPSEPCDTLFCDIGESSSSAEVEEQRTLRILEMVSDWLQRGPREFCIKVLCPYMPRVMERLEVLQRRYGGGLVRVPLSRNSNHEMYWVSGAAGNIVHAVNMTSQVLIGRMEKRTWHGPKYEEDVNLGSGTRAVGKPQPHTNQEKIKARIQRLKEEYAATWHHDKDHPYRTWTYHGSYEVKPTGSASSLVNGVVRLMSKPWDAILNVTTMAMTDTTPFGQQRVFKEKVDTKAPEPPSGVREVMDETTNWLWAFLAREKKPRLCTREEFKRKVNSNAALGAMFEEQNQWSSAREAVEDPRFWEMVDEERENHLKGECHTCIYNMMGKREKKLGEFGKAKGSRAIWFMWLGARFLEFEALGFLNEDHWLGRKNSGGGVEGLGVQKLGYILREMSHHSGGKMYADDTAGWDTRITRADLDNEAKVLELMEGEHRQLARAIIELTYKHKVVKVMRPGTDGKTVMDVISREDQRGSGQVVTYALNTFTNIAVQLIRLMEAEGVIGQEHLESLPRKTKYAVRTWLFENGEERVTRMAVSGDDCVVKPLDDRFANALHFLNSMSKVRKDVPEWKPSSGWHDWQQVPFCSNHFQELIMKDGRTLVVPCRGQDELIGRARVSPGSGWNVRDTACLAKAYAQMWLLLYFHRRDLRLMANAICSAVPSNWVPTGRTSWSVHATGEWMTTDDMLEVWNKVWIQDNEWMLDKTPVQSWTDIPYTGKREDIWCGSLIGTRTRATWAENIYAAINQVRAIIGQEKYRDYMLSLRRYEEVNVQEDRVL
Assay [4] concerns the target Recombinant His-tagged ZIKV NS5 (Zika virus). The assay can be described thus: pull-down; Ni-NTA agarose resin; 3 mg of whole-cell protein from 293 T cells incubated with 90 µg of recombinant His-tagged bait (BSA as control); UBA1 detected by Western blot.

UniProt P06935, sequence (P06935 2526-3430): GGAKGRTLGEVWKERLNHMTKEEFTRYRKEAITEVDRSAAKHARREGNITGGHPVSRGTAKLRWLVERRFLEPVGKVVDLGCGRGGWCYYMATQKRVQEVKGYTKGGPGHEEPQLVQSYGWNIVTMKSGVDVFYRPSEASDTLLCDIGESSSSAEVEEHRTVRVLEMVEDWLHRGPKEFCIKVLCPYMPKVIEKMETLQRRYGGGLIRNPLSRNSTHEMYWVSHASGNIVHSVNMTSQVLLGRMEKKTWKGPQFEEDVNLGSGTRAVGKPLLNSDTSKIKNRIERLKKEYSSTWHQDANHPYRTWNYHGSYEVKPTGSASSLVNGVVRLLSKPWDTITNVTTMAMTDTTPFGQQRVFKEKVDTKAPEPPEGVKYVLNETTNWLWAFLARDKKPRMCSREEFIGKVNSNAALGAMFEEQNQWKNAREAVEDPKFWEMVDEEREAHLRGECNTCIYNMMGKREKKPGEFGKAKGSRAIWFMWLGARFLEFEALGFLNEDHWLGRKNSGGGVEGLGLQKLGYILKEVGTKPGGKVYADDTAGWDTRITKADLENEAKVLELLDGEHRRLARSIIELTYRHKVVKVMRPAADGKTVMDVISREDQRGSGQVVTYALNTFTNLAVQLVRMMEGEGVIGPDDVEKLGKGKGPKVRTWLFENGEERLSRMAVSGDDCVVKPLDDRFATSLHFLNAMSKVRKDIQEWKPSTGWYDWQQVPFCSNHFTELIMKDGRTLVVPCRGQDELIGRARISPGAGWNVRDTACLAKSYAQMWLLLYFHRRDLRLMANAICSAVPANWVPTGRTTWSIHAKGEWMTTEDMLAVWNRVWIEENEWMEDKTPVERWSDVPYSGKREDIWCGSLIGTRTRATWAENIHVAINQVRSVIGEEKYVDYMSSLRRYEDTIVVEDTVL

For the substance “Ubiquitin-like modifier-activating enzyme 1 (UBA1), endogenous”, the fold enrichment over controls in assay [1] and in assay [3] was more than 100 fold in each case. This substance also showed a fold enrichment over controls (empty vector or EYFP) in assay [2] of more than 100 fold. In addition, the amount of UBA1 relative to controls in assay [4] is more than 4 times.

Source of the values: PMC11708914.
